In paper PMC8458290 (Nature Communications, 2021):

B1: nanobody F2 (monovalent VHH, pOPINO construct) (VHH)
VHH: QVQLVESGGGLVQAGGSLRLACIASGRTFHSYVMAWFRQAPGKEREFVAAISWSSTPTYYGESVKGRFTISRDNAKNTVYLQMNRLKPEDTAVYFCAADRGESYYYTRPTEYEFWGQGTQVTVSS
B2: nanobody C1 (monovalent VHH, pOPINO construct) (VHH)
VHH: QVQLVESGGGLVQPGGSLRLSCAASGFTNDFYSIAWFRQAPGKEREGVSWLSVSDNTPTYVDSVKDRFTISRHNANNTVYLQMNMLKPEDTAIYYCAAGRFAGRDTWPSSYDYWGQGTQVTVSS

Target: SARS-CoV-2 receptor-binding domain (amino acids 330-532), Victoria strain, biotinylated (SARS-CoV-2, Wuhan/Victoria (B), UniProt P0DTC2, biotinylated (site not stated))
Experiment: SPR
Details: both partners purified

| Binder | Kd | T1/2 |
| --- | --- | --- |
| B1 | 0.04 nM |  |
| B2 | 0.615 nM | 20 min |
